Columns and labels:
[1] = substrate: NC(CCC(=O)NC(CNCC(=O)O)CSCCN1C(=O)C=CC1=O)C(=O)O; test: (§1) TP_TRANSPORTER: uptake in membrane vesicles from MRP6-expressing Sf9 cells; assay type: functional, cell membranes, Membrane vesicle
[2] = substrate: CCCCC/C=C\C\C=C/C=C/C=C/[C@@H](SC[C@@H](NC(=O)CC[C@H](N)C(=O)O)C(=O)NCC(=O)O)[C@@H](O)CCCC(=O)O; test: as §1; assay type: functional, cell membranes, Membrane vesicle

B1: ATP-binding cassette sub-family C member 6 (Homo sapiens) (protein)
chain: MAAPAEPCAGQGVWNQTEPEPAATSLLSLCFLRTAGVWVPPMYLWVLGPIYLLFIHHHGRGYLRMSPLFKAKMVLGFALIVLCTSSVAVALWKIQQGTPEAPEFLIHPTVWLTTMSFAVFLIHTERKKGVQSSGVLFGYWLLCFVLPATNAAQQASGAGFQSDPVRHLSTYLCLSLVVAQFVLSCLADQPPFFPEDPQQSNPCPETGAAFPSKATFWWVSGLVWRGYRRPLRPKDLWSLGRENSSEELVSRLEKEWMRNRSAARRHNKAIAFKRKGGSGMKAPETEPFLRQEGSQWRPLLKAIWQVFHSTFLLGTLSLIISDVFRFTVPKLLSLFLEFIGDPKPPAWKGYLLAVLMFLSACLQTLFEQQNMYRLKVLQMRLRSAITGLVYRKVLALSSGSRKASAVGDVVNLVSVDVQRLTESVLYLNGLWLPLVWIVVCFVYLWQLLGPSALTAIAVFLSLLPLNFFISKKRNHHQEEQMRQKDSRARLTSSILRNSKTIKFHGWEGAFLDRVLGIRGQELGALRTSGLLFSVSLVSFQVSTFLVALVVFAVHTLVAENAMNAEKAFVTLTVLNILNKAQAFLPFSIHSLVQARVSFDRLVTFLCLEEVDPGVVDSSSSGSAAGKDCITIHSATFAWSQESPPCLHRINLTVPQGCLLAVVGPVGAGKSSLLSALLGELSKVEGFVSIEGAVAYVPQEAWVQNTSVVENVCFGQELDPPWLERVLEACALQPDVDSFPEGIHTSIGEQGMNLSGGQKQRLSLARAVYRKAAVYLLDDPLAALDAHVGQHVFNQVIGPGGLLQGTTRILVTHALHILPQADWIIVLANGAIAEMGSYQELLQRKGALMCLLDQARQPGDRGEGETEPGTSTKDPRGTSAGRRPELRRERSIKSVPEKDRTTSEAQTEVPLDDPDRAGWPAGKDSIQYGRVKATVHLAYLRAVGTPLCLYALFLFLCQQVASFCRGYWLSLWADDPAVGGQQTQAALRGGIFGLLGCLQAIGLFASMAAVLLGGARASRLLFQRLLWDVVRSPISFFERTPIGHLLNRFSKETDTVDVDIPDKLRSLLMYAFGLLEVSLVVAVATPLATVAILPLFLLYAGFQSLYVVSSCQLRRLESASYSSVCSHMAETFQGSTVVRAFRTQAPFVAQNNARVDESQRISFPRLVADRWLAANVELLGNGLVFAAATCAVLSKAHLSAGLVGFSVSAALQVTQTLQWVVRNWTDLENSIVSVERMQDYAWTPKEAPWRLPTCAAQPPWPQGGQIEFRDFGLRYRPELPLAVQGVSFKIHAGEKVGIVGRTGAGKSSLASGLLRLQEAAEGGIWIDGVPIAHVGLHTLRSRISIIPQDPILFPGSLRMNLDLLQEHSDEAIWAALETVQLKALVASLPGQLQYKCADRGEDLSVGQKQLLCLARALLRKTQILILDEATAAVDPGTELQMQAMLGSWFAQCTVLLIAHRLRSVMDCARVLVMDKGQVAESGSPAQLLAQKGLFYRLAQESGLV
- Km [1]: 282 µM
- Km [2]: 0.6 µM
